Data as given in the supplement of paper PMC7125110.
± gives the standard error. Fewer inactive variants are shown than the library holds.

B1: glmS ribozyme (parent)
chain: AUAAAAGCGCCAGAACUACAGAAAUGUAGUUGACGAGGAGGAGGUUUAUCGAAUUUUCGGCGGAUGCCUCCAAA

Variants of: B1
Experiment: self-cleavage kobs at 2500 uM GlcN6P; higher = faster cleavage; RNA array
Conditions: with glucosamine-6-phosphate
How it was run: (§1)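 The measurements used barcoded ribozyme variants on sequenced MiSeq chips, transcribed in situ by E. coli RNA polymerase and tracked at 37 °C with a hybridised Cy3 probe. Glucosamine-6-phosphate, 40 μM to 10 mM in HEPES/KCl/Mg(OAc)2 buffer, was flowed in while tiles were imaged over ~14 h. Baseline-normalised signals, also normalised to non-cleaving reference variants, gave per-tile medians that were fit to one- or two-exponential decays for kobs. kcat and KM resulted from weighted Michaelis–Menten fits across concentrations.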

Row | Variant | self-cleavage kobs at 2500 uM GlcN6P [s⁻¹]
1 | AUAAAAGCGCCGGAACUACAGAAAUGUAGUUGACGCGGAGGAGGUUUAUCGAAUUUUCGGCUGAUGCCUCCAAA [A12G A36C G62U] | < 1e-05
2 | AUAAAAGCGCCGGAACUACAGAAAUGUAGUUGACGAGGAGGAGGUUUAUCGAAAGUUCGGCGGAUGCCUCCAAA [A12G U54A U55G] | 0.000119 ± 4.5e-05
3 | AUAAAAGCGCCGUAACUACAGAAAUGUAGUUGACGAGGAGGAGGUUUAUCUAAUUUUCGGCGUAUGCCUACAAA [A12G G13U G51U G63U C70A] | 0.000271 ± 9.9e-05
4 | AUAAAAGCGCUAGAACUACAGAAAUGUAGUCGACGAGGAGGAGGUUUAUAGAAUUUUCGGCGGAUGCCUCCAAA [C11U U31C C50A] | < 1e-05
5 | AUAAAAGCGCCCGAUCUACAGAAAUGUAGUUGACGAGGAGGACGUUUAUCAAAUUUUCGGCGGAUGCCUCCAAA [A12C A15U G43C G51A] | < 1e-05
6 | AUAAAAGCGCCGGAACUACAGAAAUGUAGUUGACGAGGAGGAGGUUUAUCGAAUUUUCGGCGAAUGCCUCCAAA [A12G G63A] | < 1e-05
7 | AUAAAAGCGCUAGAACUACAGAAAUGUAGGUGACGAGGAGGAGGAUUAUCGAAUUUUCGGCGGAUGCCUCCAAA [C11U U30G U45A] | 0.00111 ± 0.00024
8 | AUAAAAGCGCUAGAACUACAGAAAUGUAGGUGACGAGGAGGAGGGUUAUCGAAUUUUCGGCGGAUGCCUCCAAA [C11U U30G U45G] | 0.000105 ± 4e-05
9 | AUAAAAGCGCCCGAACUACAGAAAUGUAGUUGACGGGGAGGAGGUUUAUCGAAUUUUCGGCGGAUGCCUCUAAA [A12C A36G C71U] | < 1e-05
10 | AUAAAAGCGCCGGAACUACAGAAAUGUAGUUGACGAGGUGGAGGUUUAGCGAAUGUUCGGCGGAUGCCUCCAAA [A12G A39U U49G U55G] | < 1e-05
11 | AUAAAAGCGCCCGAACUACAGAAAUGUAGUUGACGAGGAGGAGGUUUAUCGAAUUGUCGGCGGCUGCCUCCAAA [A12C U56G A64C] | 6.67e-05 ± 2.1e-05
12 | AUAAAAGCGCCUGAACUACAGAAAUGUAGUUGACGAGGGGGAGGUUUAUCGAAUCUUCGGCGGAUGCCUCCAAA [A12U A39G U55C] | 0.0482 ± 0.021
13 | AUAAAAGCGCCUGAACUACAGAAAUGUAGUUGACGAGGAGGAGGUUUAUCGAAUUUUCGGCGGGUGGCUCCAAA [A12U A64G C67G] | 7.12e-05 ± 2.2e-05
14 | AUAAAAGCGCCCGAACUACAGAAAUGUAGUUGACGGGGAGGUGGAUUAUCUAAUUUUCGGCGGAUGCCUCCAAA [A12C A36G A42U U45A G51U] | < 1e-05
15 | AUAAAAGCGCCGGAACUACAGAAAUGUAGUUGACGAGGAGGAGGGUUAUCGAAUUUUCGUCGGAUGCCUCCAAA [A12G U45G G60U] | < 1e-05
16 | AUAAAAGCGCCGGUACUACAGAAAUGUAGUUGACGAGGAGGAGGUUUACGGAAUUUUCGGUGGAUGCCUCCAAA [A12G A14U U49C C50G C61U] | < 1e-05
17 | AUAAAAGCGCCUGAACUACAGAAAUGUAGUUGACGAUAAGGAGGUUUAUCGAAUUUUCGGCGGAUGCCUCCAAA [A12U G37U G38A] | < 1e-05
18 | AUAAAAGCGCCUGAACUACAGAAAUGUAGUUGAUGAGAAGGAGGUUUAUGGAAUUUUCGGCGGAUGCCUCCAAA [A12U C34U G38A C50G] | 0.000122 ± 3e-05

Row | Variant | self-cleavage kobs at 2500 uM GlcN6P [s⁻¹]
19 | AUAAAAGCGCCUGAACUACAGAAAUGUAGUUGACGAGGAGGGGGUUUAUCGAAUUUUCGGCGGUUGCCUCCAAA [A12U A42G A64U] | 6.81e-05 ± 2.1e-05
20 | AUAAAAGCGCCGGAACUACAGAAAUGUAGUUUACGUGGAGGAGGUUUAAGGAAUUUUCGGCGGAUGCCUCCAAA [A12G G32U A36U U49A C50G] | < 1e-05
21 | AUAAAAGCGCCUGGACUACAGAAAUGUAGUUGACGAGGAGGAGGUAUAUGGAAUUUUCGGCGGAUGCCUCCAAA [A12U A14G U46A C50G] | < 1e-05
22 | AUAAAAGCGCCGGAACUACAGAAAUGUAGUUGACGAGGAGAAGGUUUAUAGAAUUUUCGGCGGAUGCCUCCAAA [A12G G41A C50A] | < 1e-05
23 | AUAAAAGCGCUAGAACUACAGAAAUGUAGUUGACGAGGAGGAGGUUUACCGAAUUUUCGGCGCAUGCCUCCAAA [C11U U49C G63C] | < 1e-05
24 | AUAAAAGCGCCGGAACUACAGAAAUGUAGUUGACGAGGAGGAGGUGUAUCGAAUUUUCGGCGGAUGCCUCAAAA [A12G U46G C71A] | 5e-05 ± 2e-05
25 | AUAAAAGCGCCGGAACUACAGAAAUGUAGUUCACGUGGAGGAGGUUUAUCGAAUUUUCGGCGGAUGCCUCCAAA [A12G G32C A36U] | < 1e-05
26 | AUAAAAGCGCCGGAACUACAGAAAUGUAGUUGACGCGAAGGAGGUUUAUCGAAUUUUCGGCGGUUGCCUCCAAA [A12G A36C G38A A64U] | < 1e-05
27 | AUAAAAGCGCCUGAACUACAGAAAUGUAGUUGACGAGGAGCAGGUGUAUCGAAUUUUCGGCGGAUGCAUCCAAA [A12U G41C U46G C68A] | < 1e-05
28 | AUAAAAGCGCCGCAACUACAGAAAUGUAAUUGACGAGGAAGAGGCUUAUCGAAUUUUCGGCGGAUGCCUCCAAA [A12G G13C G29A G40A U45C] | < 1e-05
29 | AUAAAAGCGCUAGAACUACAGAAAUGUAGUUGACGAGGAGGAGGUUUAUCGAACUUUCGGCGGAUUCCUCCAAA [C11U U54C G66U] | 9.68e-05 ± 3.4e-05
30 | AUAAAAGCGCCGGAACUACAGAAAUGUAGUUGACGAGGCGGAGGUUUAUCUAAUUAUCGGCGGAUGCCUCCAAA [A12G A39C G51U U56A] | < 1e-05
31 | AUAAAAGCGCCGGAACUACAGAAAUGUAGUUGACGAGGAGGAGGUUUAUCGGAUUUUCGCCGGAGGCCUCCAAA [A12G A52G G60C U65G] | < 1e-05
32 | AUAAAAGCGCCCGAACUACAGAAAUGUAGAUGACGAGGAGGAGGUUUAUUCAAUUUUCGGCGGAUGCCUCCAAA [A12C U30A C50U G51C] | < 1e-05
33 | AUAAAAGCGCCCGAACUACAGAAAUGUAGUCGACGAGGAGGAGGUUUAUCGAAAUUUCGGCGGAUGACUCCAAA [A12C U31C U54A C67A] | 6.33e-05 ± 2e-05
34 | AUAAAAGCGCCUGAACUACAGAAAUGUAGUUGACAAGGAGGAGGUUUAUCGCAUUUUGGGCGGAUGCGUCCAAA [A12U G35A A52C C58G C68G] | < 1e-05
35 | AUAAAAGCGCCCGAACUACAGAAAUGUAGUAGACGAGGAGGAGGUUCAUCGAAUUUUCGGCGGAUGUCUCCAAA [A12C U31A U47C C67U] | 5.13e-05 ± 2.1e-05

Variants of: B1
Experiment: self-cleavage kobs at 10000 uM GlcN6P; higher = faster cleavage; RNA array
Conditions: with glucosamine-6-phosphate
How it was run: as §1

Row | Variant | self-cleavage kobs at 10000 uM GlcN6P [s⁻¹]
36 | AUAAAAGCGCCGGAACUACAGAAAUGUAGUUGACGAGGAGGAGGUUUAUCGAAUUUUCGGCGAAUGCCUCCAAA [A12G G63A] | < 1e-05
37 | AUAAAAGCGCCUGAACUACAGAAAUGUAGUUGACGAGGAGCAGGUGUAUCGAAUUUUCGGCGGAUGCAUCCAAA [A12U G41C U46G C68A] | < 1e-05
